Source: article PMC9162472, “Improved furfural tolerance in Escherichia coli mediated by heterologous NADH-dependent benzyl alcohol dehydrogenases” (Biochemical Journal, 2022)

Key:
Test in all cases: purified protein
Details in all cases: 0.2 mM NADH, 50 mM potassium phosphate pH 7.2, 200 mM NaCl, 37 °C, error is 95% CI, kcat m^-1 [sic]
purified protein [1] = substrate: CCCCCC=O; format: biochemical, Burkholderia ambifaria
purified protein [2] = substrate: O=Cc1ccco1; format: biochemical, Burkholderia ambifaria
purified protein [3] = substrate: O=Cc1ccc(CO)o1; format: biochemical, Burkholderia ambifaria
purified protein [4] = substrate: O=Cc1ccccc1; format: biochemical, Burkholderia ambifaria
purified protein [5] = substrate: O=Cc1ccco1; format: biochemical, Acinetobacter calcoaceticus
purified protein [6] = substrate: O=Cc1ccc(CO)o1; format: biochemical, Acinetobacter calcoaceticus
purified protein [7] = substrate: O=Cc1ccccc1; format: biochemical, Acinetobacter calcoaceticus
purified protein [8] = substrate: O=Cc1ccco1; format: biochemical, Pseudomonas putida
purified protein [9] = substrate: O=Cc1ccc(CO)o1; format: biochemical, Pseudomonas putida
purified protein [10] = substrate: O=Cc1ccccc1; format: biochemical, Pseudomonas putida

B1: BaBAD (Burkholderia ambifaria MC40-6) (protein)
chain: MYTENDTRAVTAAVARAAGAPFSIEPARIRAPRGDEVLVRVVATGLCHTDLIVRDQYYPVPLPAVLGHEGAGVVEAVGPNVKTLAAGDHVVLTYGACGHCASCAGGHGAYCRQFFALNFGGADADGQTALRDAAGEPLHDHFFAQSSFASYALARENNAIKVPKEAPLELLGPLGCGIQTGAGAVINSLAVRTGSSFASFGAGAVGMSAVMAARIAGATTIIAVDIVPSRLALALELGATHAINSKEVDVVDAIREITGGGVDYALESTGLPAVLSQGIDALGSRGTMGVVGAPKLGTKAEFDVNSLLLGGHTIRGIVEGDSVPQTFIPQLVQLHLQGRFPFDRLVKFYPLEQINQAAADSSSGITLKPILRLPH
Purified protein [1]
  Km: 0.672 ± 0.374 mM
  kcat: 0.758 ± 0.163 s⁻¹
  kcat/Km: 1170 ± 667 M⁻¹ s⁻¹
Purified protein [2]
  Km: 0.0752 ± 0.0622 mM
  kcat: 0.575 ± 0.112 s⁻¹
  kcat/Km: 8330 ± 6670 M⁻¹ s⁻¹
Purified protein [3]
  Km: 0.377 ± 0.242 mM
  kcat: 1.09 ± 0.192 s⁻¹
  kcat/Km: 3330 ± 1670 M⁻¹ s⁻¹
Purified protein [4]
  Km: 0.0783 ± 0.0300 mM
  kcat: 0.865 ± 0.0785 s⁻¹
  kcat/Km: 11700 ± 5000 M⁻¹ s⁻¹

B2: AcBAD (Acinetobacter calcoaceticus) (protein)
chain: MSELKDIIAAVTPCKGADFELQALKIRQPQGDEVLVKVVATGMCHTDLIVRDQYYPVPLPAVLGHEGSGIIEAIGPNVTELQVGDHVVLSYGYCGKCTQCNTGNPAYCSEFFGRNFSGADSEGNHALCTHDQGVVNDHFFAQSSFATYALSRENNTVKVTKDVPIELLGPLGCGIQTGAGACINALKVTPASSLVTWGAGAVGLSALLAAKVCGASIIIAVDIVESRLELAKQLGATHVINSKTQDPVAAIKEITDGGVNFALESTGRPEILKQGVDALGILGKIAVVGAPQLGTTAQFDVNDLLLGGKTILGVVEGSGSPKKFIPELVRLYQQGKFPFDQLVKFYAFDEINQAAIDSHKGITLKPIIKIA
Purified protein [5]
  Km: 0.359 ± 0.224 mM
  kcat: 2.73 ± 0.467 s⁻¹
  kcat/Km: 8330 ± 3330 M⁻¹ s⁻¹
Purified protein [6]
  Km: 0.294 ± 0.277 mM
  kcat: 0.565 ± 0.146 s⁻¹
  kcat/Km: 1670 ± 1670 M⁻¹ s⁻¹
Purified protein [7]
  Km: 0.412 ± 0.251 mM
  kcat: 6.57 ± 1.34 s⁻¹
  kcat/Km: 16700 ± 10000 M⁻¹ s⁻¹

B3: XylB (Pseudomonas putida) (protein)
chain: EIKAAIVRQKNGPFLLEHVALNEPAEDQVLVRLVATGLCHTDLVCRDQHYPVPLPMVFGHEGAGVVERVGSAVKKVQPGDHVVLTFYTCGSCDACLSGDPTSCANSFGPNFMGRSVTGECTIHDHQGAEVGASFFGQSSFATYALSYERNTVKVTKDVPLELLGPLGCGIQTGAGSVLNALNPPAGSSIAIFGAGAVGLSAVMAAVVAGCTKIIVVDVKENRLKLADELGATHVINAASSDPVEKIKEICAGGVPYVLETSGLPSVLQQAILSSAIGGEIGIVGAPPMGATIPVDINFLLFNRKLRGIVEGQSISDIFIPRLVELYRQGKFPFDKLLKFYSFDEINQAAEDSENGITLKPVLRIS
Purified protein [8]
  Km: 0.234 ± 0.153 mM
  kcat: 2.45 ± 0.467 s⁻¹
  kcat/Km: 10000 ± 6670 M⁻¹ s⁻¹
Purified protein [9]
  Km: 0.461 ± 0.0521 mM
  kcat: 1.16 ± 0.0453 s⁻¹
  kcat/Km: 3330 ± 333 M⁻¹ s⁻¹
Purified protein [10]
  Km: 0.0212 ± 0.0162 mM
  kcat: 0.192 ± 0.0343 s⁻¹
  kcat/Km: 8330 ± 6670 M⁻¹ s⁻¹
